Biological target: CS40 anti-ManLAM monoclonal antibody
Experiment: competitive ELISA, ManLAM-coated plate, CS40 mixed with peptide; at 50 µg/ml peptide

B1: B11 synthetic peptide (…) (peptide)
peptide: ISLTEWSMWYRH
decrease in OD (inhibition of CS40 binding to ManLAM): 100%
